Measured values taken from patent publication US20200270325A1 (Merck Sharp & Dohme, published 2020).
Numbered stars: 1 amine (or outer) side, 2 acyl side, 3 side chain; on linkers, the order of the positions; unused ones are H or OH. Square brackets hold non-standard residues; d marks the D form. Side chains are listed from the residue outwards. Ends that are not written are not given here. * marks the point of attachment. C18 diacid = O=C(O)CCCCCCCCCCCCCCCCC(=O)*; C16 diacid = O=C(O)CCCCCCCCCCCCCCC(=O)*; γGlu = O=C(O)[C@H](CCC(=O)[*:2])N[*:1]; Met(O2) = CS(=O)(=O)CC[C@H](N)C(=O)O; αMeD = C[C@](N)(CC(=O)O)C(=O)O; αMeS = C[C@](N)(CO)C(=O)O; AEEA = NCCOCCOCC(=O)O; Aib = CC(C)(N)C(=O)O

B1: TP612 (peptide)
peptide: H[Aib]QGTFTSDYSKYL[αMeD]ARAAK([AEEA-AEEA-γGlu-C18 diacid])[αMeD]FVQWL[Met(O2)][αMeD]T-NH2
modifications: N-terminus assumed
SMILES: CC(C)C[C@H](NC(=O)[C@H](Cc1c[nH]c2ccccc12)NC(=O)[C@H](CCC(N)=O)NC(=O)[C@@H](NC(=O)[C@H](Cc1ccccc1)NC(=O)[C@](C)(CC(=O)O)NC(=O)[C@H](CCCCNC(=O)COCCOCCNC(=O)COCCOCCNC(=O)CC[C@H](NC(=O)CCCCCCCCCCCCCCCCC(=O)O)C(=O)O)NC(=O)[C@H](C)NC(=O)[C@H](C)NC(=O)[C@H](CCCNC(=N)N)NC(=O)[C@H](C)NC(=O)[C@](C)(CC(=O)O)NC(=O)[C@H](CC(C)C)NC(=O)[C@H](Cc1ccc(O)cc1)NC(=O)[C@H](CCCCN)NC(=O)[C@H](CO)NC(=O)[C@H](Cc1ccc(O)cc1)NC(=O)[C@H](CC(=O)O)NC(=O)[C@H](CO)NC(=O)[C@@H](NC(=O)[C@H](Cc1ccccc1)NC(=O)[C@@H](NC(=O)CNC(=O)[C@H](CCC(N)=O)NC(=O)C(C)(C)NC(=O)[C@@H](N)Cc1c[nH]cn1)[C@@H](C)O)[C@@H](C)O)C(C)C)C(=O)N[C@@H](CCS(C)(=O)=O)C(=O)N[C@@](C)(CC(=O)O)C(=O)N[C@H](C(N)=O)[C@@H](C)O
B2: TP614 (peptide)
peptide: H[αMeS]QGTFTSDYSKYLDARAAK([AEEA-AEEA-γGlu-C16 diacid])DFVQWL[Met(O2)][αMeD]T-NH2
modifications: N-terminus assumed
SMILES: CC(C)C[C@H](NC(=O)[C@H](Cc1ccc(O)cc1)NC(=O)[C@H](CCCCN)NC(=O)[C@H](CO)NC(=O)[C@H](Cc1ccc(O)cc1)NC(=O)[C@H](CC(=O)O)NC(=O)[C@H](CO)NC(=O)[C@@H](NC(=O)[C@H](Cc1ccccc1)NC(=O)[C@@H](NC(=O)CNC(=O)[C@H](CCC(N)=O)NC(=O)[C@](C)(CO)NC(=O)[C@@H](N)Cc1c[nH]cn1)[C@@H](C)O)[C@@H](C)O)C(=O)N[C@@H](CC(=O)O)C(=O)N[C@@H](C)C(=O)N[C@@H](CCCNC(=N)N)C(=O)N[C@@H](C)C(=O)N[C@@H](C)C(=O)N[C@@H](CCCCNC(=O)COCCOCCNC(=O)COCCOCCNC(=O)CC[C@H](NC(=O)CCCCCCCCCCCCCCC(=O)O)C(=O)O)C(=O)N[C@@H](CC(=O)O)C(=O)N[C@@H](Cc1ccccc1)C(=O)N[C@H](C(=O)N[C@@H](CCC(N)=O)C(=O)N[C@@H](Cc1c[nH]c2ccccc12)C(=O)N[C@@H](CC(C)C)C(=O)N[C@@H](CCS(C)(=O)=O)C(=O)N[C@@](C)(CC(=O)O)C(=O)N[C@H](C(N)=O)[C@@H](C)O)C(C)C
B3: TP615 (peptide)
peptide: H[αMeS]QGTFTSDYSKYLDARAAQK([AEEA-AEEA-γGlu-C16 diacid])FVQWL[Met(O2)][αMeD]T-NH2
modifications: N-terminus assumed
SMILES: CC(C)C[C@H](NC(=O)[C@H](Cc1ccc(O)cc1)NC(=O)[C@H](CCCCN)NC(=O)[C@H](CO)NC(=O)[C@H](Cc1ccc(O)cc1)NC(=O)[C@H](CC(=O)O)NC(=O)[C@H](CO)NC(=O)[C@@H](NC(=O)[C@H](Cc1ccccc1)NC(=O)[C@@H](NC(=O)CNC(=O)[C@H](CCC(N)=O)NC(=O)[C@](C)(CO)NC(=O)[C@@H](N)Cc1c[nH]cn1)[C@@H](C)O)[C@@H](C)O)C(=O)N[C@@H](CC(=O)O)C(=O)N[C@@H](C)C(=O)N[C@@H](CCCNC(=N)N)C(=O)N[C@@H](C)C(=O)N[C@@H](C)C(=O)N[C@@H](CCC(N)=O)C(=O)N[C@@H](CCCCNC(=O)COCCOCCNC(=O)COCCOCCNC(=O)CC[C@H](NC(=O)CCCCCCCCCCCCCCC(=O)O)C(=O)O)C(=O)N[C@@H](Cc1ccccc1)C(=O)N[C@H](C(=O)N[C@@H](CCC(N)=O)C(=O)N[C@@H](Cc1c[nH]c2ccccc12)C(=O)N[C@@H](CC(C)C)C(=O)N[C@@H](CCS(C)(=O)=O)C(=O)N[C@@](C)(CC(=O)O)C(=O)N[C@H](C(N)=O)[C@@H](C)O)C(C)C
B4: TP613 (peptide)
peptide: H[Aib]QGTFTSDYSKYLDERAAK([AEEA-AEEA-γGlu-C18 diacid])DFVQWL[Met(O2)][αMeD]T-NH2
modifications: N-terminus assumed
SMILES: CC(C)C[C@H](NC(=O)[C@H](Cc1ccc(O)cc1)NC(=O)[C@H](CCCCN)NC(=O)[C@H](CO)NC(=O)[C@H](Cc1ccc(O)cc1)NC(=O)[C@H](CC(=O)O)NC(=O)[C@H](CO)NC(=O)[C@@H](NC(=O)[C@H](Cc1ccccc1)NC(=O)[C@@H](NC(=O)CNC(=O)[C@H](CCC(N)=O)NC(=O)C(C)(C)NC(=O)[C@@H](N)Cc1c[nH]cn1)[C@@H](C)O)[C@@H](C)O)C(=O)N[C@@H](CC(=O)O)C(=O)N[C@@H](CCC(=O)O)C(=O)N[C@@H](CCCNC(=N)N)C(=O)N[C@@H](C)C(=O)N[C@@H](C)C(=O)N[C@@H](CCCCNC(=O)COCCOCCNC(=O)COCCOCCNC(=O)CC[C@H](NC(=O)CCCCCCCCCCCCCCCCC(=O)O)C(=O)O)C(=O)N[C@@H](CC(=O)O)C(=O)N[C@@H](Cc1ccccc1)C(=O)N[C@H](C(=O)N[C@@H](CCC(N)=O)C(=O)N[C@@H](Cc1c[nH]c2ccccc12)C(=O)N[C@@H](CC(C)C)C(=O)N[C@@H](CCS(C)(=O)=O)C(=O)N[C@@](C)(CC(=O)O)C(=O)N[C@H](C(N)=O)[C@@H](C)O)C(C)C
B5: TP611 (peptide)
peptide: HXQGTFTSDYSKYLDARAAXXFVQWLXXT
modifications: Aib (U) at 2; K(PEG2PEG2γEC18-OH) at 20; αMD at 21; L-methionine sulphone (2) at 27; αMD at 28; C-terminal amide
B6: TP610 (peptide)
peptide: H[Aib]QGTFTSDYSKYL[αMeD]ARAAK([AEEA-AEEA-γGlu-C18 diacid])DFVQWL[Met(O2)][αMeD]T-NH2
modifications: N-terminus assumed
SMILES: CC(C)C[C@H](NC(=O)[C@H](Cc1c[nH]c2ccccc12)NC(=O)[C@H](CCC(N)=O)NC(=O)[C@@H](NC(=O)[C@H](Cc1ccccc1)NC(=O)[C@H](CC(=O)O)NC(=O)[C@H](CCCCNC(=O)COCCOCCNC(=O)COCCOCCNC(=O)CC[C@H](NC(=O)CCCCCCCCCCCCCCCCC(=O)O)C(=O)O)NC(=O)[C@H](C)NC(=O)[C@H](C)NC(=O)[C@H](CCCNC(=N)N)NC(=O)[C@H](C)NC(=O)[C@](C)(CC(=O)O)NC(=O)[C@H](CC(C)C)NC(=O)[C@H](Cc1ccc(O)cc1)NC(=O)[C@H](CCCCN)NC(=O)[C@H](CO)NC(=O)[C@H](Cc1ccc(O)cc1)NC(=O)[C@H](CC(=O)O)NC(=O)[C@H](CO)NC(=O)[C@@H](NC(=O)[C@H](Cc1ccccc1)NC(=O)[C@@H](NC(=O)CNC(=O)[C@H](CCC(N)=O)NC(=O)C(C)(C)NC(=O)[C@@H](N)Cc1c[nH]cn1)[C@@H](C)O)[C@@H](C)O)C(C)C)C(=O)N[C@@H](CCS(C)(=O)=O)C(=O)N[C@@](C)(CC(=O)O)C(=O)N[C@H](C(N)=O)[C@@H](C)O

These binders were tested against human Glucagon receptor (GCGR) (human, UniProt P47871 26-477) (assay: cell-based or functional assay).
Chain of human Glucagon receptor (GCGR) (P47871 26-477): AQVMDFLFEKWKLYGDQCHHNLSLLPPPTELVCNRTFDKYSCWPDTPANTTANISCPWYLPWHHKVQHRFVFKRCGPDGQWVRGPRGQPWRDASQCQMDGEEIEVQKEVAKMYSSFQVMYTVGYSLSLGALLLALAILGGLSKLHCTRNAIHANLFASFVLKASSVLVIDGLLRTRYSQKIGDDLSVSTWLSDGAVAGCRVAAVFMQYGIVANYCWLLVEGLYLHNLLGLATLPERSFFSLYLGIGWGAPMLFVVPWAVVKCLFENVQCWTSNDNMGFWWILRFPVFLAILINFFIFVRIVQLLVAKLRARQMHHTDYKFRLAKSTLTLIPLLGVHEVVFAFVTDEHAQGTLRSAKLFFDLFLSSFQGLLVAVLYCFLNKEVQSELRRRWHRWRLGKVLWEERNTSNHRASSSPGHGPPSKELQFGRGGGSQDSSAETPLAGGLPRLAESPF

Q: B1 was tested. Which “GCGR EC50 human” value did it give?
A: 2.04 nM

Q: With B2 as the binder, how does the “GCGR EC50 human” value read?
A: 0.86 nM

Q: How did the “GCGR EC50 human” value turn out when B3 was run?
A: 0.26 nM

Q: B4 was tested. Which “GCGR EC50 human” value did it give?
A: > 5 nM

Q: How did the “GCGR EC50 human” value turn out when B5 was run?
A: 0.2 nM

Q: Which “GCGR EC50 human” value does the source give for B6 here?
A: 0.19 nM

What follows are binders tested against human GLP-1 receptor (GLP1R) (human, UniProt P43220 24-463) (assay: cell-based or functional assay).

Q: Which “GLP1R EC50 human” value does the source give for B1 here?
A: 4.95 nM

Q: For B2, which “GLP1R EC50 human” value is on record?
A: 1.4 nM

Q: For B3, which “GLP1R EC50 human” value is on record?
A: 0.4 nM

Q: Which “GLP1R EC50 human” value does the source give for B4 here?
A: 3.34 nM

Q: How did the “GLP1R EC50 human” value turn out when B5 was run?
A: > 5 nM

Q: With B6 as the binder, how does the “GLP1R EC50 human” value read?
A: > 5 nM
